For 1 molecule, casein hydrolysis (% control) results are on record in patent publication US20030027303A1.

Experiment in all cases: cell-based or functional assay
Assay [1] deals with gut proteases of C. obliquana (crude gut extract) (Ctenopseustis obliquana).
Assay [2] has as its target gut proteases of H. armigera (crude gut extract) (Helicoverpa armigera).
Assay [3] addresses gut proteases of A. tasmaniae (crude gut extract) (Aphodius tasmaniae).
Assay [4] deals with gut proteases of A. infusa (crude gut extract) (Agrotis infusa).
The target in assay [5] is gut proteases of sugar cane grub (crude gut extract).
For assay [6], the target named is gut proteases of C. zealandica (crude gut extract) (Costelytra zealandica).
The target of assay [7] is gut proteases of H. punctigera (crude gut extract) (Helicoverpa punctigera).
In assay [8] the target is gut proteases of C. rufifacies (crude gut extract) (Chrysomya rufifacies).
For assay [9], the target named is gut proteases of W. cervinata (crude gut extract) (Wiseana cervinata).
For assay [10], the target named is gut proteases of S. litura (crude gut extract) (Spodoptera litura).
For assay [11], the target named is gut proteases of T. commodus (crude gut extract) (Teleogryllus commodus).
In assay [12] the target is gut proteases of P. octo (crude gut extract) (Planotortrix octo).
Assay [13] concerns the target gut proteases of L. serricata (crude gut extract) (Lucilla sericata).
Assay [14] has as its target gut proteases of E. postvitiana (crude gut extract) (Epiphyas postvittana).
Assay [15] deals with gut proteases of P. opercullela (crude gut extract) (Phthorimaea opercullela).

B1: C1, N. alata chymotrypsin inhibitor (peak 1 from HPLC) (peptide)
peptide: DRICTNCCAGTKGCKYFSDDGTFVCEGESDPRNPKACTLNCDPRIAYGVCPRS
Consider B1, for which the casein hydrolysis (% control) in [1] came out at 49.1 % control; in assay [2] it was 32.7 % control; in [3], 34.2 % control; in assay [4], 40.2 % control; in assay [5], 43.9 % control; in [6] it was 54.7 % control. Further, the casein hydrolysis (% control) turned out to be 29.3 % control in assay [7]; 37.8 % control in assay [8]; 82.9 % control in [9]; 33.6 % control in [10]; 35 % control in [11]; 67.2 % control in [12]. Moreover, the casein hydrolysis (% control) in assay [13] was 100 % control; in assay [14], 45.4 % control; in [15], 100 % control.
